The text below walks through data of paper PMC3744951 (Molecular Biology of the Cell, 2013).

In this test the target is GST-GSK3β fusion protein (human, UniProt P49841 1-420). Description: co-IP.
GST-GSK3β fusion protein, sequence (P49841 whole entry, the tested form may be a part): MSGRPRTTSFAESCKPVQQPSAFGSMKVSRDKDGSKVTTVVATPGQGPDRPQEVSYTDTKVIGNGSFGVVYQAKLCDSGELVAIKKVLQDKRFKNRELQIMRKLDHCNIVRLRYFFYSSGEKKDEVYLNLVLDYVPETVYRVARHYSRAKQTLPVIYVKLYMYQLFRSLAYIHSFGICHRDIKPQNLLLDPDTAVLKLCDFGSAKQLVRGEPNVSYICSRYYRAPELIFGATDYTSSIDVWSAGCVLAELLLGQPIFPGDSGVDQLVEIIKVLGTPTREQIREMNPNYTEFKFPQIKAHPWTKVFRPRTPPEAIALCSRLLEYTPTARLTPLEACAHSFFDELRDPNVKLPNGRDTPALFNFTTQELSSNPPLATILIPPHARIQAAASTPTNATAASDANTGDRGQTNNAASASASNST

B1: GST-FANCL fusion protein (natural protein, human, UniProt Q9NW38 1-375, looked up)
chain: MAVTEASLLRQCPLLLPQNRSKTVYEGFISAQGRDFHLRIVLPEDLQLKNARLLCSWQLRTILSGYHRIVQQRMQHSPDLMSFMMELKMLLEVALKNRQELYALPPPPQFYSSLIEEIGTLGWDKLVYADTCFSTIKLKAEDASGREHLITLKLKAKYPAESPDYFVDFPVPFCASWTPQSSLISIYSQFLAAIESLKAFWDVMDEIDEKTWVLEPEKPPRSATARRIALGNNVSINIEVDPRHPTMLPECFFLGADHVVKPLGIKLSRNIHLWDPENSVLQNLKDVLEIDFPARAILEKSDFTMDCGICYAYQLDGTIPDQVCDNSQCGQPFHQICLYEWLRGLLTSRQSFNIIFGECPYCSKPITLKMSGRKH
As to B1, the binding result was “binds”.
